Results from article doi:10.1101/2023.08.04.551977 (bioRxiv, 2023).
Read-outs that look alike come from different tables or passages of the source. Values belong to the molecule of their own block, whether it stands above or below them.

How the values were obtained:
[1] = target: His-sumo-AR MBR (aa. G473-T560); assay: BLI
Wild-type menin (human) [2] = target: Wild-type menin (human) (UniProt O00255); assay: MST
Wild-type menin (human) [3] = target: Wild-type menin (human) (UniProt O00255); assay: MST; remark: listed apart in the source
[4] = target: menin Δ460-519/ 586-615 (human) (UniProt O00255); assay: MST
menin Δ460-519 (human) = menin Δ460-519 (human) (UniProt O00255); assay: MST
menin-MLL complex = menin-MLL complex (UniProt O00255); assay: MST
MST = target: the molecule itself; assay: MST
HPLC-SAXS = target: the molecule itself; assay: HPLC-SAXS
AR MBR (aa. G473-T560) = assay: NMR titration
AR-v7 = target: T1, AR-v7 (UniProt P10275-3 1-644); assay: MST
T1 sequence: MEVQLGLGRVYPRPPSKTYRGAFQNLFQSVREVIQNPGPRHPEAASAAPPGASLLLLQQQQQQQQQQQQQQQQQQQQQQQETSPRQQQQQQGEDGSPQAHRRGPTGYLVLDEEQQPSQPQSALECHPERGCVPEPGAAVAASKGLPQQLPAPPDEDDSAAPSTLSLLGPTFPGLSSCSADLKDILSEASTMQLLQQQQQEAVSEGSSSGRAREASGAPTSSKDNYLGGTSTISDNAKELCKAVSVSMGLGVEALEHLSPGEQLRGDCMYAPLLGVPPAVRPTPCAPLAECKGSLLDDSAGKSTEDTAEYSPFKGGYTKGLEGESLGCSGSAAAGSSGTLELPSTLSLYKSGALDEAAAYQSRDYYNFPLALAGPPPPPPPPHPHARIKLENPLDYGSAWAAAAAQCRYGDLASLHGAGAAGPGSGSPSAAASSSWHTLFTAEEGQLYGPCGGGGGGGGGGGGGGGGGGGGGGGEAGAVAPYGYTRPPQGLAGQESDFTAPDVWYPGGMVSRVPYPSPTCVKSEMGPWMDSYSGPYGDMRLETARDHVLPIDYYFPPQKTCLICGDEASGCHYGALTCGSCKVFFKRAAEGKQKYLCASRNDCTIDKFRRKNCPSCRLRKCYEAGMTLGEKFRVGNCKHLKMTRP

dynamic light scattering = target: the molecule itself; assay: dynamic light scattering
[5] = target: His-sumo-AR MBR (aa. G473-T560); assay: BLI; remark: listed apart in the source
His-sumo-AR MBR B = His-sumo-AR MBR B (UniProt P10275); assay: BLI
His-sumo-AR MBR A = His-sumo-AR MBR A (UniProt P10275); assay: BLI
Wild-type menin (human) [6] = target: Wild-type menin (human) (UniProt O00255); assay: dynamic light scattering
Wild-type menin (human) [7] = target: Wild-type menin (human) (UniProt O00255); assay: SEC

Kd [1]: 10.5 µM
Molecule: menin-MLL complex (from UniProt O00255;Q03164)

Kd (Wild-type menin (human) [2]): 24 µM
Molecule: His-sumo-AR MBR B (from UniProt P10275 509-559) (domain or fragment)

Kd (Wild-type menin (human) [2]): 1000 µM
Molecule: His-sumo-AR MBR A (from UniProt P10275 473-518) (domain or fragment)

Kd (Wild-type menin (human) [3]): 9.8 µM
Kd [4]: 2 µM
Kd (menin Δ460-519 (human)): 6.3 µM
Kd (menin-MLL complex): 10.8 µM
Kd (Wild-type menin (human) [2]): 1.7 µM
Molecule: His-sumo-AR MBR (aa. G473-T560) (domain or fragment)

B1: menin Δ460-519/ 586-615 (natural protein)
chain: MGLKAAQKTLFPLRSIDDVVRLFAAELGREEPDLVLLSLVLGFVEHFLAVNRVIPTNVPELTFQPSPAPDPPGGLTYFPVADLSIIAALYARFTAQIRGAVDLSLYPREGGVSSRELVKKVSDVIWNSLSRSYFKDRAHIQSLFSFITGTKLDSSGVAFAVVGACQALGLRDVHLALSEDHAWVVFGPNGEQTAEVTWHGKGNEDRRGQTVNAGVAERSWLYLKGSYMRCDRKMEVAFMVCAINPSIDLHTDSLELLQLQQKLLWLLYDLGHLERYPMALGNLADLEELEPTPGRPDPLTLYHKGIASAKTYYRDEHIYPYMYLAGYHCRNRNVREALQAWADTATVIQDYNYCREDEEIYKEFFEVANDVIPNLLKEAASLLEAGEERPGEQSQGTQSQGSALQDPECFAHLLRFYDGICKWEEGSPTPVLHVGWATFLVQSLGRFEGQVRQKVRIVSGTVAGTARGPEGGSTAQVPAPTASPPPEGPVLTFQSEKMKGMKELLVATKINSSAIKLQLTAQSQV
modifications: RED-NHS 2nd generation dye label on the labelled partner in the MST experiments
Kd (MST): 3.2 ± 0.8 µM

Kd (AR MBR (aa. G473-T560)): 15.7 µM
Kd (AR-v7): 1.7 ± 1.8 µM
B2: menin Δ460-519 (natural protein)
chain: MGLKAAQKTLFPLRSIDDVVRLFAAELGREEPDLVLLSLVLGFVEHFLAVNRVIPTNVPELTFQPSPAPDPPGGLTYFPVADLSIIAALYARFTAQIRGAVDLSLYPREGGVSSRELVKKVSDVIWNSLSRSYFKDRAHIQSLFSFITGTKLDSSGVAFAVVGACQALGLRDVHLALSEDHAWVVFGPNGEQTAEVTWHGKGNEDRRGQTVNAGVAERSWLYLKGSYMRCDRKMEVAFMVCAINPSIDLHTDSLELLQLQQKLLWLLYDLGHLERYPMALGNLADLEELEPTPGRPDPLTLYHKGIASAKTYYRDEHIYPYMYLAGYHCRNRNVREALQAWADTATVIQDYNYCREDEEIYKEFFEVANDVIPNLLKEAASLLEAGEERPGEQSQGTQSQGSALQDPECFAHLLRFYDGICKWEEGSPTPVLHVGWATFLVQSLGRFEGQVRQKVRIVSGTVAGTARGPEGGSTAQVPAPTASPPPEGPVLTFQSEKMKGMKELLVATKINSSAIKLQLTAQSQVQMKKQKVSTPSDYTLSFLKRQRKGL
modifications: RED-NHS 2nd generation dye label on the labelled partner in the MST experiments
stoichiometry N (HPLC-SAXS): 2
Kd (MST): 1.9 ± 0.9 µM

B3: AR MBR-DBD-LBD (domain or fragment)
chain: GEAGAVAPYGYTRPPQGLAGQESDFTAPDVWYPGGMVSRVPYPSPTCVKSEMGPWMDSYSGPYGDMRLETARDHVLPIDYYFPPQKTCLICGDEASGCHYGALTCGSCKVFFKRAAEGKQKYLCASRNDCTIDKFRRKNCPSCRLRKCYEAGMTLGARKLKKLGNLKLQEEGEASSTTSPTEETTQKLTVSHIEGYECQPIFLNVLEAIEPGVVCAGHDNNQPDSFAALLSSLNELGERQLVHVVKWAKALPGFRNLHVDDQMAVIQYSWMGLMVFAMGWRSFTNVNSRMLYFAPDLVFNEYRMHKSRMYSQCVRMRHLSQEFGWLQITPQEFLCMKALLLFSIIPVDGLKNQKFFDELRMNYIKELDRIIACKRKNPTSCSRRFYQLTKLLDSVQPIARELHQFTFDLLIKSHMVSVDFPEMMAEIISVQVPKILSGKVKPIYFHTQ
stoichiometry N (dynamic light scattering): 2

Kd [5]: 10.5 µM
Kd (His-sumo-AR MBR B): 47 µM
Kd (His-sumo-AR MBR A): 3000 µM
stoichiometry N (Wild-type menin (human) [6]): 2
Kd (Wild-type menin (human) [2]): 10.4 µM
stoichiometry N (Wild-type menin (human) [7]): 2
B4: Wild-type menin (natural protein)
chain: MGLKAAQKTLFPLRSIDDVVRLFAAELGREEPDLVLLSLVLGFVEHFLAVNRVIPTNVPELTFQPSPAPDPPGGLTYFPVADLSIIAALYARFTAQIRGAVDLSLYPREGGVSSRELVKKVSDVIWNSLSRSYFKDRAHIQSLFSFITGTKLDSSGVAFAVVGACQALGLRDVHLALSEDHAWVVFGPNGEQTAEVTWHGKGNEDRRGQTVNAGVAERSWLYLKGSYMRCDRKMEVAFMVCAINPSIDLHTDSLELLQLQQKLLWLLYDLGHLERYPMALGNLADLEELEPTPGRPDPLTLYHKGIASAKTYYRDEHIYPYMYLAGYHCRNRNVREALQAWADTATVIQDYNYCREDEEIYKEFFEVANDVIPNLLKEAASLLEAGEERPGEQSQGTQSQGSALQDPECFAHLLRFYDGICKWEEGSPTPVLHVGWATFLVQSLGRFEGQVRQKVRIVSREAEAAEAEEPWGEEAREGRRRGPRRESKPEEPPPPKKPALDKGLGTGQGAVSGPPRKPPGTVAGTARGPEGGSTAQVPAPTASPPPEGPVLTFQSEKMKGMKELLVATKINSSAIKLQLTAQSQVQMKKQKVSTPSDYTLSFLKRQRKGL
modifications: RED-NHS 2nd generation dye label on the labelled partner in the MST experiments
